These are literature values, as cited in PMC2635555.

In the data set the target is Histone H3 (H3K4me0) N-terminal tail (Homo sapiens) (UniProt P68431).

Chain of AIRE PHD1 (O43918 296-343): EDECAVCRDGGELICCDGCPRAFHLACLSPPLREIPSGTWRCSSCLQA

As usually defined, the Kd is the concentration at which binding is half-saturated. AIRE PHD1 (from UniProt O43918): the Kd was 5 µM.
